We go through eight molecules from patent US20220064312A1 (SHIONOGI, published 2022).

B1: 2-7B (antibody, V domains shown)
VH: EVQLVESDGGLVQPGRSLKLSCAASGFTFSDYYMAWVRQAPTKGLEWVATITYDVYSTYYRDSVKGRFTISRDNAKSTLYLQMDSLRSEDTATYYCARHGGDGYNSGNWFAYWGQGTLVTVSS
VL: DIVLTQSPALAVSLGQRATISCRASQSVSISRYNIMHWYQQKPGQQPKLLIYRASNLASGIPARFSGSGSGTDFTLTINPVQADDIATYYCQQSRESPPTFGGGTKLELKR
B2: h10A11 (IGKV3-20/IGHV3-15 T94R) (antibody, V domains shown)
VH: EVQLVESGGALVKPGGSLRLSCAASGFTFSTYALYWVRQAPGKGLEWVGRIRSKSNNYATYYADSVKDRFTISRDDSKNTLYLQMNSLKTEDTAVYYCTRARFYYSDYGYAMDYWGQGTLVTVSS
VL: EIVLTQSPGTLSLSPGERATLSCRSSKSLLHSNGNTYLYWYQQKPGQAPRLLIYRMSNLASGIPDRFSGSGSGTDFTLTISRLEPEDFAVYYCMQHLEYPLTFGQGTKVEIKR
B3: h10A11 (IGKV2-28/IGHV3-73) (antibody, V domains shown)
VH: EVQLVESGGGLVQPGGSLKLSCAASGFAFNTYALYWVRQASGKGLEWVGRIRSKSNNYATYYADSVKDRFTISRDDSKNTAYLQMNSLKTEDTAVYYCTRARFYYSDYGYAMDYWGQGTLVTVSS
VL: DIVMTQSPLSLPVTPGEPASISCRSSKSLLHSNGNTYLYWYLQKPGQSPQLLIYRMSNLASGVPDRFSGSGSGTDFTLKISRVEAEDVGVYYCMQHLEYPLTFGQGTKVEIKR
B4: h10A11 (IGKV1-39/IGHV3-73) (antibody, V domains shown)
VH: EVQLVESGGGLVQPGGSLKLSCAASGFAFNTYALYWVRQASGKGLEWVGRIRSKSNNYATYYADSVKDRFTISRDDSKNTAYLQMNSLKTEDTAVYYCTRARFYYSDYGYAMDYWGQGTLVTVSS
VL: DIQMTQSPSSLSASVGDRVTITCRSSKSLLHSNGNTYLYWYQQKPGKAPKLLIYRMSNLASGVPSRFSGSGSGTDFTLTISSLQPEDFATYYCMQHLEYPLTFGQGTKLEIKR
B5: h10A11 (IGKV1-39/IGHV3-15 T94R) (antibody, V domains shown)
VH: EVQLVESGGALVKPGGSLRLSCAASGFTFSTYALYWVRQAPGKGLEWVGRIRSKSNNYATYYADSVKDRFTISRDDSKNTLYLQMNSLKTEDTAVYYCTRARFYYSDYGYAMDYWGQGTLVTVSS
VL: DIQMTQSPSSLSASVGDRVTITCRSSKSLLHSNGNTYLYWYQQKPGKAPKLLIYRMSNLASGVPSRFSGSGSGTDFTLTISSLQPEDFATYYCMQHLEYPLTFGQGTKLEIKR
B6: h10A11 (IGKV2-40/IGHV3-73) (antibody, V domains shown)
VH: EVQLVESGGGLVQPGGSLKLSCAASGFAFNTYALYWVRQASGKGLEWVGRIRSKSNNYATYYADSVKDRFTISRDDSKNTAYLQMNSLKTEDTAVYYCTRARFYYSDYGYAMDYWGQGTLVTVSS
VL: DIVMTQTPLSLPVTPGEPASISCRSSKSLLHSNGNTYLYWYLQKPGQSPQLLIYRMSNLASGVPDRFSGSGSGTDFTLKISRVEAEDVGVYYCMQHLEYPLTFGQGTKLEIKR
B7: h10A11 (IGKV2-40/IGHV3-15 T94R) (antibody, V domains shown)
VH: EVQLVESGGALVKPGGSLRLSCAASGFTFSTYALYWVRQAPGKGLEWVGRIRSKSNNYATYYADSVKDRFTISRDDSKNTLYLQMNSLKTEDTAVYYCTRARFYYSDYGYAMDYWGQGTLVTVSS
VL: DIVMTQTPLSLPVTPGEPASISCRSSKSLLHSNGNTYLYWYLQKPGQSPQLLIYRMSNLASGVPDRFSGSGSGTDFTLKISRVEAEDVGVYYCMQHLEYPLTFGQGTKLEIKR
B8: h10A11 (IGKV1-16/IGHV3-15 T94R) (antibody, V domains shown)
VH: EVQLVESGGALVKPGGSLRLSCAASGFTFSTYALYWVRQAPGKGLEWVGRIRSKSNNYATYYADSVKDRFTISRDDSKNTLYLQMNSLKTEDTAVYYCTRARFYYSDYGYAMDYWGQGTLVTVSS
VL: DIQMTQSPSSLSASVGDRVTITCRSSKSLLHSNGNTYLYWFQQKPGKAPKSLIYRMSNLASGVPSRFSGSGSGTDFTLTISSLQPEDFATYYCMQHLEYPLTFGQGTKLEIKR

The target in the first experiment is T1, human CCR8 (human, UniProt P51685 1-355). Kind of experiment: cell-based or functional assay.
T1 sequence (P51685 whole entry): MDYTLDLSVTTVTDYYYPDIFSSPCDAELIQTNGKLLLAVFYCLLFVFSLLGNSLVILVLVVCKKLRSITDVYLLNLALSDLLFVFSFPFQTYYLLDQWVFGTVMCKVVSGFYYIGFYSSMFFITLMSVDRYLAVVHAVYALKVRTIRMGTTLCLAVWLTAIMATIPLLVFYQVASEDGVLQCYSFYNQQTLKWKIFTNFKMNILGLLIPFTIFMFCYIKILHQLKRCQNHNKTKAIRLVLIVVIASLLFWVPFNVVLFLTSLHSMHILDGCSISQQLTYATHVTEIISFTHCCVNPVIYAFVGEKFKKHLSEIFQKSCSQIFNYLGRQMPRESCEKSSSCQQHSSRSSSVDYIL
As to B1, the “IC50 (nM), Ca2+ influx by 200 nM hCCL1” value stood at 0.23 nM.

A further experiment concerns the target T1, human CCR8. Put plainly: cell-based or functional assay. The source holds these as a separate data set.
Take B2: the “IC50 (nM), Ca2+ influx by 200 nM hCCL1” value was found to be 0.16 nM. On the same count and under the same terms, the result for B3 reads 0.2 nM; that for B4, 0.16 nM; that for B5, 0.2 nM. As to B6, the “IC50 (nM), Ca2+ influx by 200 nM hCCL1” value is 0.21 nM. The same measure, in the same setting: the result for B7 reads 0.3 nM; that for B8, 0.7 nM.
